Measurements taken from patent publication US20080241867.

B1: Proteinase K (protein)
chain: AAQTNAPWGLARISSTSPGTSTYYYDESAGQGSCVYVIDTGIEASHPEFEGRAQMVKTYYYSSRDGNGHGTHCAGTVGSRTYGVAKKTQLFGVKVLDDNGSGQYSTIIAGMDFVASDKNNRNCPKGVVASLSLGGGYSSSVNSAAARLQSSGVMVAVAAGNNNADARNYSPASEPSVCTVGASDRYDRRSSFSNYGSVLDIFGPGTSILSTWIGGSTRSISGTSMATPHVAGLAAYLMTLGKTTAASACRYIADTANKGDLSNIPFGTVNLLAYNNYQA
B2: Papain (protein)
chain: IPEYVDWRQKGAVTPVKNQGSCGSCWAFSAVVTIEGIIKIRTGNLNEYSEQELLDCDRRSYGCNGGYPWSALQLVAQYGIHYRNTYPYEGVQRYCRSREKGPYAAKTDGVRQVQPYNEGALLYSIANQPVSVVLEAAGKDFQLYRGGIFVGPCGNKVDHAVAAVGYGPNYILIKNSWGTGWGENGYIRIKRGTGNSYGVCGLYTSSFYPVKN
B3: Purified Bromelain (protein)
chain: AVPQSIDWRDYGAVTSVKNQNPCGACWAFAAIATVESIYKIKKGILEPLSEQQVLDCAKGYGCKGGWEFRAFEFIISNKGVASGAIYPYKAAKGTCKTDGVPNSAYITGYARVPRNNESSMMYAVSKQPITVAVDANANFQYYKSGVFNGPCGTSLNHAVTAIGYGQDSIIYPKKWGAKWGEAGYIRMARDVSSSSGICGIAIDPLYPTLEE

Target: hybrid GFP construct containing the protease cleavage sequence SVPSGCG (SEQ ID NO:21) followed by histidine residues

Protein	Micrograms of GFP Released by Protease (overnight, IMAC beads) [µg]	% GFP Released (60 minutes, 37° C.) [%]	averaged GFP signal (instrument signal times dilution factor, four readings)	fluorescence units of eluant diluted 20-fold	µg GFP Released by Protease (60 minutes, 37° C.) [µg]
B1	94	–	–	–	–
B2	244	97	papain yielded an averaged (over four readings) GFP signal of 282,000	fluorescence units of 400, 400, and 390, respectively	109
B3	35	98	bromelain yielded a averaged (over four readings) GFP signal of 281,500	fluorescence units of 400, 400, and 390, respectively	109
